Assay results taken from US20070167369A1, “Novel use of isolated polypeptide comprising four FAS-1 domains, EM1 domain and RGD motif” (KYUNGPOOK NATIONAL UNIVERSITY INDUSTRY-ACADEMIC COOPERATION …, priority 2004, published 2007).

Molecular target: αvβ3 integrin (human) (UniProt P06756)
Assay: cell-based or functional assay

Sequence of αvβ3 integrin (human) (P06756 31-1048, chain 1 of 2): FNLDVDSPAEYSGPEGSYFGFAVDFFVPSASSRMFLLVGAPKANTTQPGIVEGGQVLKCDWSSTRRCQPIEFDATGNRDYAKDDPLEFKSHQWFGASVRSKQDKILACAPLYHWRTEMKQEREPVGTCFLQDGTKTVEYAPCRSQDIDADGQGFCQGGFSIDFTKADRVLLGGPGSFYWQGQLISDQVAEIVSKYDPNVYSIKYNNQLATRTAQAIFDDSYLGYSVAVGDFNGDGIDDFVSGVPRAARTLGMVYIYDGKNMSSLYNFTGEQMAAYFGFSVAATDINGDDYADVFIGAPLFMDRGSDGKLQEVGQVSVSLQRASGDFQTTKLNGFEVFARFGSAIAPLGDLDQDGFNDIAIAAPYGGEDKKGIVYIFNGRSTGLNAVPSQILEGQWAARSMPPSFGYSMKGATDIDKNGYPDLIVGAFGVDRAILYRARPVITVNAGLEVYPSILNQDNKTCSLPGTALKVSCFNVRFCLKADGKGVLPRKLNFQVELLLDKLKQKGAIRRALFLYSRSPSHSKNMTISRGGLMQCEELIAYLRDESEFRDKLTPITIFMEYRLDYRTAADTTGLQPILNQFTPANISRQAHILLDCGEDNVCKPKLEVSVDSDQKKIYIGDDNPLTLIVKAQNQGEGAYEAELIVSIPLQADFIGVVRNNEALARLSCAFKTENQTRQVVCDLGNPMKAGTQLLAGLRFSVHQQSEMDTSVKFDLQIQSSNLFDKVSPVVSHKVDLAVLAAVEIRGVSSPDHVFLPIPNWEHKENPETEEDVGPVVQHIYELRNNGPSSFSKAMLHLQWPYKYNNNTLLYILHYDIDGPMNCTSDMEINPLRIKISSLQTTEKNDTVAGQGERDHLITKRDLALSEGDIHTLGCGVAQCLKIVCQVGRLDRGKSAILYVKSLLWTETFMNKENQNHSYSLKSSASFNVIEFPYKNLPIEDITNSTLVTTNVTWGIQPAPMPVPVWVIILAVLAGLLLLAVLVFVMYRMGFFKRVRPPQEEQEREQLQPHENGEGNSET
Sequence of αvβ3 integrin (human) (P05106 27-788, chain 2 of 2, further chain): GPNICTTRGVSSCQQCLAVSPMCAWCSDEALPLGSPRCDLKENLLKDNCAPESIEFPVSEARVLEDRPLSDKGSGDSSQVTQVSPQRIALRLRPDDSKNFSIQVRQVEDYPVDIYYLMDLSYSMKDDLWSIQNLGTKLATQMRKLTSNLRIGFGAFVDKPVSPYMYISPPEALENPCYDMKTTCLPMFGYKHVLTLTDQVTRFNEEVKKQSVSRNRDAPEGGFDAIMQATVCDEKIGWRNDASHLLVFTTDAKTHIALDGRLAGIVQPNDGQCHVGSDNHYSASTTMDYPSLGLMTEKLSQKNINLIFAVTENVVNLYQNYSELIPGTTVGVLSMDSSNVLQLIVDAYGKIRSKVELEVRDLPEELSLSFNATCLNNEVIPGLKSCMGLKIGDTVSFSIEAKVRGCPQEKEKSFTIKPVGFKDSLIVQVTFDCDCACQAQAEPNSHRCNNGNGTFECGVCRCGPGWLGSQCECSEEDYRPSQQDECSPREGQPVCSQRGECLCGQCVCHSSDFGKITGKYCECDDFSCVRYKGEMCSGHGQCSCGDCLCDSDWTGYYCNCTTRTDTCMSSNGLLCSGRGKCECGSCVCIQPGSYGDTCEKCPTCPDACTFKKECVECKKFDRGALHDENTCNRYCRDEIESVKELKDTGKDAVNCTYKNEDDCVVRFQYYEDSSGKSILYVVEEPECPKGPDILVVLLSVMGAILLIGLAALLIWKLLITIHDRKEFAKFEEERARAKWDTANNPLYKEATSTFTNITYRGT

70%-inhibition of tube formation (HUVECs on Matrigel): 5 µM
half-inhibition of migration toward vitronectin (HUVECs, transwell): 5 µM
Substance: Regenin (regenin protein that expresses four of the fourth fas-1 domains of βig-h3)
